# According to the DeepSol protein solubility set:
# Assay: soluble on expression in E. coli; label from the status in PepcDB or PDB records
row,Sequence,soluble on expression in E. coli
1,MGSDKIHHHHHHMGIIATSFIPFRGLSVSNLSETNFSETSNANVDPQEIAKFEKMAATWWDPEGEFKPIHKLNPLRLNYIDQAVGGLFGKRVLDVGCGGGILSESMARLGARVDGLDMGAEPLDVAKLHALEMGVEINYIQDTAEHHRDSHQGQYDVVTCMEMLEHVPDPASVIKACSDMVKPGGYVFFSTINRNIRAYVETVIGAEYLLKMLPVGTHDHKKYIKPAELIGMADAVDLECVDATGITYNPLTEIFRYTKSLDVNYMIATVKQDD,not soluble
2,MGSDKIHHHHHHMTRIALTHVTTYRYGAPVTLGEHKMMFRPRDSHDLHIVEATLVLSPVAEVRWMHDVFGNSITIADFQGASTDFLRFESKILLDHFGLSEPTYPIAAYAETFPFTYDADLVADLGRTNERHYPDPDHRLDAWARRFLDEPGETATLEMLSAMNRAISAEFSYAARDTEGTQTPLETLERGSGSCRDFALLMMEAVRSLGLAARFVSGYLYDPALDGRNASGTVGAGATHAWLQVYLPGAGWVEFDPTNALVGGENLIRVAVTRDPSQAVPITGSFAGPGNAFLSMEVEVTLHRQDQNIQVA,not soluble
3,MGHHHHHHSHENKKAKPVPWVEKYRPKCVDEVAFQEEVVAVLKKSLEGADLPNLLFYGPPGTGKTSTILAAARELFGPELFRLRVLELNASDERGIQVVREKVKNFAQLTVSGSRSDGKPCPPFKIVILDEADSMTSAAQAALRRTMEKESKTTRFCLICNYVSRIIEPLTSRCSKFRFKPLSDKIQQQRLLDIAKKENVKISDEGIAYLVKVSEGDLRKAITFLQSATRLTGGKEITEKVITDIAGVIPAEKIDGVFAACQSGSFDKLEAVVKDLIDEGHAATQLVNQLHDVVVENNLSDKQKSIITEKLAEVDKCLADGADEHLQLISLCATVMQQLSQNC,soluble
4,MSLNIAMTGATGYIGKHLSNYLTEKGGHRIIPLGRAMFREGMSGLLVQTLTHCDVIINLAGAPINQRWTPEHKQELFNSRITVTHRIIRALNAVKTKPKLMISASAVGYYPSLVESDEYTQTRGDGFLSDLCYAWEKEAKRCPQPTRLVITRFGVVLSPDGGAMQQMLRPLRATKVAAVIGPGTQPFPWIDIRDLCCAMAFFIENEELRGVFNLVAPQAVSQSTFTRAMGKAYHAWTTEGHHHHHH,not soluble
5,MGSDKIHHHHHHMSQVNALQLTGISKSFDGFKALIDADFTACWGEVHALLGENGAGKSSLMNIAAGLYAPETGTLMLDDNPVQLQGPKDASRYRIGMVHQHFKLVKPFTVAQNILLALPEQPGEGSYRKRLRMLERDIVRKAEELGFAIDPSRVVDSLSVAEQQRVEILKVLLAGARILILDEPTAVLTDQEAERLLLTVQAFARQGAAVILVTHKMADVKRYADRVTVMRGGRTIQTLDPQRVSVEQLVQLTVGESVPVAAHHPAVPGEVRLQVKDLRSVGGSALNGVNMTLRAGQIYGIAGVGGNGQAELANALMGLPQATEGDIHLAPFGDLRNASAEQRRQLRIASIPADRYGAALAGSLSVAENFGIGNIHSGHYGSFWRLGYKRLKQDAQRAVESFDVQGVRSLDQKAALLSGGNAQKLVIAREFSRDPQLVLVHSPSRGLDVRATQAVHDRLRAARDAGAAVLLISEDLDEVLALADRIGVMNGGRIVAEFDHPADRQAIGKAMVSHD,not soluble
6,MKAIITKPMCVVGDNKSTVRFETSTPNNPFVEISNQVYARLKRANAAKPFVDVKTKIKPDKAVEQIKQIEKEPNQISSETVTEETSLEKPKASKASKPSTPTPKKA,not soluble
7,MGSDKIHHHHHHMSIQVKALSKRIDNREILRGITFTWQPGRIVGLVGRNGVGKTTLFRTMADHYLADEGELVIEGQSTLQQPYCRQKLFYIDTQRHFFGGRRLRQIITTYALAYDDFDQSQLTALLAAEHLSTKSYYQRLSKGQQMLFQILLALASHVPYIILDEPFDGLDIIVRERIVAYMVEEVAEHGVSFLISSHNLDELDGLCDQVLFLQHHELVADYDLESLRATARKFQLVFADKHIPAVVKEHGQLIKVYGRVLEVYFADYTPTIETALQQTQPLMMAVQPLTITDVFRVKLGDRQAVWGGV,not soluble
8,SAEKLFTPLKVGAVTAPNRVFMAPLTRLRSIEPGDIPTPLMGEYYRQRASAGLIISEATQISAQAKGYAGAPGLHSPEQIAAWKKITAGVHAEDGRIAVQLWHTGRISHSSIQPGGQAPVSASALNANTRTSLRDENGNAIRVDTTTPRALELDEIPGIVNDFRQAVANAREAGFDLVELHSAHGYLLHQFLSPSSNQRTDQYGGSVENRARLVLEVVDAVCNEWSADRIGIRVSPIGTFQNVDNGPNEEADALYLIEELAKRGIAYLHMSETDLAGGKPYSEAFRQKVRERFHGVIIGAGAYTAEKAEDLIGKGLIDAVAFGRDYIANPDLVARLQKKAELNPQRPESFYGGGAEGYTDYPSL,soluble
9,MGSDKIHHHHHHMNNSEKMLVCLDQQDLDKADKYFKRALVQDDSETLLSLAAYLEGIGFFPQARQIYEQVKEEFPEVLINLAQIAFEDGLVEEAFRYLEEISEDSSIYVEALLVKADLYQAEGLSDVAREKLLEASHLSDKPIILFGLAELDMELELFNEAISYYAQLDNREIYELTGISTYQRIGIAYASLGKFEAAIEFLEKAVELEYDDQTVFELAALLFEREEYQKANLYFKQLDTINPDFEGYEYAYAQSLHAEHKIDDALAMTQKGLAKNDFDANLLFQASQYAYELHDEAGAEDYLLRAKEVADDSNELALRLSNLYLEQERFEEVVALFDEEVDNVLARWNKAKAYQALERDDEAIALYDELAGELAENPEFLADYVAVLRQLGRLDEAKEQASRYIQLVPDDLAMQEFLNEE,not soluble
10,MERKHHFVLVHNAYHGAWIWYKLKPLLESAGHRVTAVELAASGIDPRPIQAVETVDEYSKPLIETLKSLPENEEVILVGFSFGGINIALAADIFPAKIKVLVFLNAFLPDTTHVPSHVLDKYMEMPGGLGDCEFSSHETRNGTMSLLKMGPKFMKARLYQNCPIEDYELAKMLHRQGSFFTEDLSKKEKFSEEGYGSVQRVYVMSSEDKAIPCDFIRWMIDNFNVSKVYEIDGGDHMVMLSKPQKLFDSLSAIATDYM,soluble
11,AIAKLPISTISPIHYMKSVVSSRETRNESNKSRRTFASTEWNKIIRETLYLETVYIPVDATSHSPDIIFKLQSPVEPKVLTVGVACKGRWKSEGIGWSDIIDEAKKFLDPVYDQVLSSAMDYHHCMLIIVSTKLSLNVSNELGNQSRCYSSGMFIGGDSFKVPDNCELVILCERDVQMLIDKEILNGLERAFCVSHNPTFWDFGLDLLDRIRNSFLSWQ,soluble
12,MGSDKIHHHHHHMPGRAGGCTRNTGAPVNRQDRAHAFLQRALEAQAALPVDHGLMRDLFAGTGDDSRLSLSEVGELVSRDPSLAVRILSLANSAYYGLQAEVTTVGRAVTVLGMREVRNLVLALGFSSVARMHPLPDRFCTAGYWLHQLRVAAFCRIIAAGTEDLDPEMLYTAGLLHDIGKLFIAALAPDDWLGIRRLARQESLPDCKAEERWWGLDHALAGARVLAYWQLPAALTEPISWHHGPHFADAAHARGAGAVQLADALLLAFERGTPPPAAALQLLKEYTADAGRLQMALEAQFAGERIGQLAALLG,not soluble
13,MTNFIDRRLNSKNKSTVNRQRFLRRYKNQIKKSVSDAINQRGVTDIDSGESIVIPNRDLSEPTFHQGDGGVKDRVHPGNDQFSTGDRIPRPPKQQGQGGGQGDASDSGEGEDDFTFSISKEEYLNLLFEDLELPNLERNQLDKLIEYKTVRSGFCAEGVASNIDIVKSLQGSIARRIAMTASKRKQIKVLELELQALNNDKHDNIQRKRDLIAEIETLKNKISKVPFIDTFDLRFRNYAKQAVPTSKAVMFCLMDVSGSMDQATKEMAKRFYILLYLFLSRTYKNIDVVYIRHHTQAKEVDEHEFFYSQETGGTIASSALELMNDIITERYNDNQWNIYGAQASDGDNWADDSPRCQALLEQQILPKSRYFSYIEITQRAHQTLWKHYQQVEESHTNFAMQHIKSVADIYPVFRKFFKKNTKSAALEHHHHHH,soluble
14,RLSDTLMKQALSSVITQEKKRLKSQPKSIAQDIQPPNSMIKNALDEKDSHPFGDCFSDDEFLAIHLYTSCLYRPINHHLRYAPKNDVAPVVEAMNSGLAKLAQYPDYQVSGQLHRGIKQKMDDGEVMSRFKPGNTYRDDAFMSTSTRMDVTEEFTSDVTLHLQSSSAVNIGPFSKNPYEDEALIPPLTPFKVTGLHKQDDRWHVHLNEIAESSDE,not soluble
15,MNMALISLAIDYKKSPIEVRSEFALSGLDVSMLYRSILAIDNVVHAVILSTCNRTEVYLEISDLRVVDDILVWWQGYVRNPNYKIKDYFKLRQGTEVIMHLMKLACGLESMVLGEPQILGQVKDSYTLSKKNHAIGKELDRVFQKVFATAKRVRSETRIGHCPVSVAFSAITLAKRQLDNISSKNVLIIGAGQTGELLFRHVTALAPKQIMLANRTIEKAQKITSAFRNASAHYLSELPQLIKKADIIIAAVNVLEYIVTCKYVGDKPRVFIDISIPQALDPKLGELEQNVYYCVDDINAVIEDNKDKRKYESSKAQKIIVKSLEEYLEKEKAIISNSAIKELFQKADGLVDLSLEKSLAKIRNGKDAEEIIKRFAYEIKKKVLHYPVVGMKEASKQGRSDCLVCMKRMFGLNVEK,not soluble
16,MEWPRFGRVVLKPFSAGLSEAEWKGLYETFRDPEVAEWNGSSPLRSPFWLFKRFVLAEARRKDRVAFVILDEKGEYLGTLELYDLTPEEATLGILIGRKDRWGQGYGTEAVRAALDYAFRVLGLRRVKLRTFAHNLRARRAFQKAGFREVGVVPGPRGREDVHMEVRREDLGPEA,soluble
17,MPPRFNIANVLLSPDGETFFRGFRSKIHAKGSLVCTGEGDENGVFVVVDGRLRVYLVGEEREISLFYLTSGDMFCMHSGCLVEATERTEVRFADIRTFEQKLQTCPSMAWGLIAILGRALTSCMRTIEDLMFHDIKQRIAGFFIDHANTTGRQTQGGVIVSVDFTVEEIANLIGSSRQTTSTALNSLIKEGYISRQGRGHYTIPNLVRLKAAADGDRDDDDD,soluble
18,AHHHHHHGSNFQQEILIIKSEIYPIVSKHYPKNTRREVISLYDLITFAILAHLHFNGVYKHAYRVLIEEMKLFPKIRYNKLTERLNRHEKLLLLAQEELFKKHAREYVRILDSKPIQTKELARKNRKDKEGSSEIISEKPAVGFVPSKKSFTMGTS,not soluble
19,MPFPFGKSHKSPADIVKNLKESMAVLEKQDISDKKAEKATEEVSKNLVAMKEILYGTNEKEPQTEAVAQLAQELYNSGLLSTLVADLQLIDFEGKKDVAQIFNNILRRQIGTRTPTVEYICTQQNILFMLLKGYESPEIALNCGIMLRECIRHEPLAKIILWSEQFYDFFRYVEMSTFDIASDAFATFKDLLTRHKLLSAEFLEQHYDRFFSEYEKLLHSENYVTKRQSLKLLGELLLDRHNFTIMTKYISKPENLKLMMNLLRDKSRNIQFEAFHVFKVFVANPNKTQPILDILLKNQAKLIEFLSKFQNDRTEDEQFNDEKTYLVKQIRDLKRPAQQEA,soluble
20,QQEKEFLESYPQNCPPDALPGTPGNLDSAQEKALAELRKLLEDAGFIERLDDSTLLRFLRARKFDVQLAKEMFENCEKWRKDYGTDTILQDFHYDEKPLIAKFYPQYYHKTDKDGRPVYFEELGAVNLHEMNKVTSEERMLKNLVWEYESVVQYRLPACSRAAGHLVETSCTIMDLKGISISSAYSVMSYVREASYISQNYYPERMGKFYIINAPFGFSTAFRLFKPFLDPVTVSKIFILGSSYQKELLKQIPAENLPVKFGGKSEVDESKGGLYLSDIGPWRDPKYIGPEGEAPE,soluble
21,GPGSMVHSYGYKSGTRHLFAKKFRKHGAPSVSTILTNIKVGDYVDVVADSAVREGMPHKYYHGRTGIVWNVTPRGVGVIINKPVRTRTLRKRICVRFEHVRKSRCQEAFKAKEHQFQAYLAAKKAGKALPPLQKSSRLGGIVRPKTVEVLARRVADYEAMVPY,not soluble
